# Measured values: patent publication US12564623B2, “Methods and compositions for treating cancer” (The University of Chicago, priority 2017, dated 2026)
# T1: CD95 (Homo sapiens, UniProt P25445)
# T1 sequence (P25445 26-335): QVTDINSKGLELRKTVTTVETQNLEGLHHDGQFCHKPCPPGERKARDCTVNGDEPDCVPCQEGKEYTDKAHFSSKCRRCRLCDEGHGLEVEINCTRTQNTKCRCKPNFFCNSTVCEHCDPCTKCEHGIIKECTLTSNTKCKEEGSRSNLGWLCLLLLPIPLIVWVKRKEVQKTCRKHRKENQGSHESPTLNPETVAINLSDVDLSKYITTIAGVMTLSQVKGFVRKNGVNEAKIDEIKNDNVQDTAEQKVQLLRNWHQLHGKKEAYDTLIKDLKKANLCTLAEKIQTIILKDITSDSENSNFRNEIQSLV
# What was measured:
# [1] = system: MDA-MB-231 cells; test: Cancer cell killing, Calcein AM staining; assay type: cell-based, human; conditions: for cancer cell killing in combination with neutrophil conditioned media: Neu-CM 4 μg/mL, DOX 0.3 μM or PTX 3 nM, 4h
# Procedure: Approach to identify the factor(s) mediating selective killing. A quantitative cancer cell killing assay was developed to track the bioactive factor(s). MDA-MB-231 cells were treated with various doses of PMN media and cell viability was assessed by Calcein AM live cells fluorescence staining. […] (FIG. 3B) PMN media was passed through a 0.22 μm filter, and protein concentration and killing activity on MDA-MB-231 cancer cells was measured in both pre- and post-filter solutions. […] ELANE and ECP levels in PMN media pre- and post-filtration were quantified by mass spectrometry (spectral counts).
# To determine if ELANE and/or ECP were responsible, the inventors (1) immuno-depleted ELANE or ECP from PMN media; (2) treated cancer or normal cells with purified native ELANE or ECP from commercial sources. (FIG. 6A) ELANE or ECP were depleted from PMN media by immunoprecipitation; depletion was confirmed by western blotting. PMN media pre-depletion=Orig. and post-depletion=FT. Non-specific IgG was used as a control. (FIG. 6B) MDA-MB-231 cells or human monocyte-derived macrophages (HMDMs) were treated with purified native ELANE or ECP at various doses for 24h, and killing was assessed by Calcein AM staining. (FIG. 6C) MDA-MB-231 cells and HMDMs were treated with levels of ELANE (0.25 μg/mL) or ECP (0.05 μg/mL) that were present in the PMN media, alone or in combination for 24 hrs, and killing was examined by Calcein AM staining.
# High doses of ECP or ELANE can kill cancer cells. The inventors sought to determine whether adding purified human ECP (Lee Biosolutions), human ELANE (Abcam), human DEFA1 (Abcam), human ANXA6 (R&D Systems) or human CASP3 (Abcam) individually could kill cancer cells without killing non-cancer cells. Increasing doses of each protein were added to MDA-MB-231 cells for 5h or human monocyte-derived macrophages (HMDMs) for 24 h and cell viability was determined by Calcein-AM.
# ELANE and ECP synergize to selectively kill cancer cells. MDA-MB-231 and human monocyte-derived macrophages (HMDMs) were treated with levels of ELANE (0.25 μg/mL) or ECP (0.05 μg/mL) that were present in the PMN media, alone or in combination for 24 hrs. killing was examined by Calcein AM staining.
# Combining chemotherapeutics and neutrophil conditioned media enhances the killing of human triple negative breast cancer cells. MDA-MB-231 cells were treated with neutrophil conditioned media (Neu-CM; 4 μg/mL), doxorubicin (DOX; 0.3 μM), or paclitaxel (PTX; 3 nM) for 4h, individually or in combination, and cell viability was assessed by Calcein-AM.
# (§1) Other serine proteases cleave the C-terminal domain of CD95, and the ability to cleave the C-terminal domain is associated with cancer cell killing. (FIG. 12A) Full length recombinanat CD95 protein was incubated with various serine proteases (human ELANE (80 nM), PR3 (80 nM), CSTG (80 nM), PPE (80 nM), mouse ELANE (80 nM), rat ELANE (500 nM), GZMB (80 nM), or Trypsin (250 nM)), or other types of proteases (CTSC (80 nM); or MMP7 (80 nM), MMP9 (80 nM), CTSD (80 nM) not shown) at 37° C. for 2 hours. Degradation was assessed by SDS-PAGE followed by coomassie blue staining. (FIG. 12B) MDA-MB-231 cancer cells were incubated with various proteases for 24 hrs. Cell viability was assessed by Calcein AM staining.
# (FIG. 13A) MDA-MB-231 cancer cells were treated with various doses of purified native ELANE or purified native porcine pancreatic elastase (PPE) for 6 h, and killing was assessed by Calcein AM staining. (FIG. 13B). Purified native ELANE or purified native PPE was incubated with different concentrations of alpha-1-anti-trypsin (A1AT) for 15 mins. Catalytic activity was measured using a chromogenic substrate assay. Cancer cell killing capability was determined by treating MDA-MB-231 cancer cells with ELANE or PPE in the presence or absence of A1AT for 6h, followed by Calcein AM staining. (FIG. 13C) Catalytic activity was measured using a chromogenic substrate assay. […]
# [2] = molecular target: T1, CD95; test: Recombinant CD95 degradation, SDS-PAGE and coomassie blue; assay type: biochemical; parameters: Recombinant proteins (1 μg) corresponding to full length CD95 (FL-CD95); conditions: purified CD95
# Procedure: ELANE lowers CD95 levels in cancer cells and reduced CD95 levels are associated with apoptosis. (FIG. 8A) Recombinant proteins (1 μg) corresponding to full length CD95 (FL-CD95), N-terminal domain of CD95 (amino acids 1-173; N-CD95), or C-terminal domain of CD95 (amino acids 157-320; C-CD95) were inbuated with ELANE (0.05 μg) or vehicle (Veh) for 2 hrs at 37° C. Degradation was assessed by SDS-PAGE followed by coomassie blue staining. […] (FIG. 8C) Cancer cells were treated with ELANE (50 nM) for 1 hr, fixed in 10% formalin, and stained with N- or C-terminal specific anti-CD95 antibodies (green). Hoechst 33342 solution was used for nuclear staining (blue). Images were taken under 40×.
# ELANE selectively cleaves the C-terminal domain of CD95. The CD95 pathway is essential for the survival of a wide range of cancer cells, but largely dispensable for normal cell survival (Adachi et al., Nat. Genet., 1995; Karray et al., J. Immunol., 2004). CD95 function can be modulated by proteolysis (Strand et al., Oncogene, 2004). To test CD95 involvement in ELANE mediated cell killing ELANE (0.05 μg) was incubated with 1 μg recombinant human C-terminal (aa. 157-320) or N-terminal (aa. 1-173) CD95 for 2 hrs at 37° C. Degradation was assessed by SDS-PAGE followed by staining with coomassie blue. C-terminal domain cleavage. N-terminal domain cleavage. Cancer cells were treated with ELANE (50 nM) for 1 hr, fixed in 10% formalin, and stained with N- or C-terminal specific anti-CD95 antibodies. Hoechst 33342 solution was used for nuclear staining. Images were taken under 40×. […] Mel888 cancer cells were treated with ELANE (50 nM) for various times, and CD95 degradation was assessed by western blot analysis with a C-terminal specific anti-CD95 antibody.
# as §1
Molecule,cancer cell killing in combination with neutrophil conditioned media [1],cancer cell killing by proteases [1],cleavage of purified CD95 [2],"cancer cell killing activity of purified protein ([1]; increasing doses, 5h)"
"COc1cccc2c1C(=O)c1c(O)c3c(c(O)c1C2=O)C[C@@](O)(C(=O)CO)C[C@@H]3O[C@H]1C[C@H](N)[C@H](O)[C@H](C)O1 [doxorubicin, reference compound]",enhanced cancer cell killing,,,
"CC(=O)O[C@H]1C(=O)[C@@]2(C)[C@H]([C@H](OC(=O)c3ccccc3)[C@]3(O)C[C@H](OC(=O)[C@H](O)[C@@H](NC(=O)c4ccccc4)c4ccccc4)C(C)=C1C3(C)C)[C@]1(OC(C)=O)CO[C@@H]1C[C@@H]2O [paclitaxel, reference compound]",enhanced cancer cell killing,,,
cathepsin G [CTSG],,killed cancer cells,cleaved purified CD95 with an identical degradation pattern to ELANE,
"murine neutrophil elastase (protein, listed as Mus musculus) MALGRLSSRTLAAMLLALFLGGPALASEIVGGRPARPHAWPFMASLQRRGGHFCGATLIARNFVMSAAHCVNGLNFRSVQVVLGAHDLRRQERTRQTFSVQRIFENGFDPSQLLNDIVIIQLNGSATINANVQVAQLPAQGQGVGDRTPCLAMGWGRLGTNRPSPSVLQELNVTVVTNMCRRRVNVCTLVPRRQAGICFGDSGGPLVCNNLVQGIDSFIRGGCGSGLYPDAFAPVAEFADWINSIIRSHNDHLLTHPKDREGRTN",,killed cancer cells,cleaved purified CD95 with an identical degradation pattern to ELANE,
"proteinase 3 (protein, listed as Homo sapiens) MAHRPPSPALASVLLALLLSGAARAAEIVGGHEAQPHSRPYMASLQMRGNPGSHFCGGTLIHPSFVLTAAHCLRDIPQRLVNVVLGAHNVRTQEPTQQHFSVAQVFLNNYDAENKLNDVLLIQLSSPANLSASVATVQLPQQDQPVPHGTQCLAMGWGRVGAHDPPAQVLQELNVTVVTFFCRPHNICTFVPRRKAGICFGDSGGPLICDGIIQGIDSFVIWGCATRLFPDFFTRVALYVDWIRSTLRRVEAKGRP",,killed cancer cells,cleaved purified CD95 with an identical degradation pattern to ELANE,
"ANXA6: purified human ANXA6 (R&D Systems) (protein, UniProt P08133 2-673, looked up) Annexin A6: AKPAQGAKYRGSIHDFPGFDPNQDAEALYTAMKGFGSDKEAILDIITSRSNRQRQEVCQSYKSLYGKDLIADLKYELTGKFERLIVGLMRPPAYCDAKEIKDAISGIGTDEKCLIEILASRTNEQMHQLVAAYKDAYERDLEADIIGDTSGHFQKMLVVLLQGTREEDDVVSEDLVQQDVQDLYEAGELKWGTDEAQFIYILGNRSKQHLRLVFDEYLKTTGKPIEASIRGELSGDFEKLMLAVVKCIRSTPEYFAERLFKAMKGLGTRDNTLIRIMVSRSELDMLDIREIFRTKYEKSLYSMIKNDTSGEYKKTLLKLSGGDDDAAGQFFPEAAQVAYQMWELSAVARVELKGTVRPANDFNPDADAKALRKAMKGLGTDEDTIIDIITHRSNVQRQQIRQTFKSHFGRDLMTDLKSEISGDLARLILGLMMPPAHYDAKQLKKAMEGAGTDEKALIEILATRTNAEIRAINEAYKEDYHKSLEDALSSDTSGHFRRILISLATGHREEGGENLDQAREDAQVAAEILEIADTPSGDKTSLETRFMTILCTRSYPHLRRVFQEFIKMTNYDVEHTIKKEMSGDVRDAFVAIVQSVKNKPLFFADKLYKSMKGAGTDEKTLTRIMVSRSEIDLLNIRREFIEKYDKSLHQAIEGDTSGDFLKALLALCGGED",,,,could not kill cancer cells
